Six molecules from patent US20220194983A1 (Bicycle, published 2022) can be followed below.

Numbered stars: 1 amine (or outer) side, 2 acyl side, 3 side chain; on linkers, the order of the positions; unused ones are H or OH. Bridge positions count the residues as written; N and C are the ends. Square brackets hold non-standard residues; d marks the D form. Ends that are not written are not given here. TBMB = c1c(C[*:1])cc(C[*:3])cc1C[*:2]; Dap(Me) = CNC[C@H](N)C(=O)O

The target of experiment [1] is T1, prostate-specific membrane antigen (PSMA) (human, UniProt Q04609 44-750, limits assumed).
T1 construct: also called Glutamate carboxypeptidase II; GCPII
T1 sequence (Q04609 44-750 limits assumed): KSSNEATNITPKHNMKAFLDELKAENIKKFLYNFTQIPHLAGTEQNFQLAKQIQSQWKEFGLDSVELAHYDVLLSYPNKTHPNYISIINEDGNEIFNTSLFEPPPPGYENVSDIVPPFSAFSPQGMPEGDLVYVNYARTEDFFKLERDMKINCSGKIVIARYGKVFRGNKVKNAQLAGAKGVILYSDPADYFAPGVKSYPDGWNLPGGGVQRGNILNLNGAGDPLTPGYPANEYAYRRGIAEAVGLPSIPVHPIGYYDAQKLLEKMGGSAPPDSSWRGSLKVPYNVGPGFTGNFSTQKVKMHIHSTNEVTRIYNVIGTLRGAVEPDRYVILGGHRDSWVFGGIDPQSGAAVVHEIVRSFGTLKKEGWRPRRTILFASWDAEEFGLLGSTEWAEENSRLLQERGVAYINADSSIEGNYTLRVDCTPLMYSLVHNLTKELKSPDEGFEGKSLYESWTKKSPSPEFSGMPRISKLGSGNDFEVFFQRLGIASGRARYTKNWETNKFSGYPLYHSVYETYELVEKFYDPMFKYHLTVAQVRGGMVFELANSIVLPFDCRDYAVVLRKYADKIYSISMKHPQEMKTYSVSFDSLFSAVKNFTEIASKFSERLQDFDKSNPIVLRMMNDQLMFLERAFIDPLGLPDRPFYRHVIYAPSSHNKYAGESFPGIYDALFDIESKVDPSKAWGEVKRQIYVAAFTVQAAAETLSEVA
Description: fluorescence polarization, FP (h).

In experiment [2] the target is T1, prostate-specific membrane antigen …. Description: cell-based or functional assay.
For experiment [3] the target is unchanged. Description: fluorescence polarization binding assay. As to the method:
PSMA binding was measured using the fluorescence polarization assay methodology described in Shen et al (2013) PLOS ONE 8(7), e68339 and PSMA enzyme inhibition was measured using the methodology described in WO 2009/070302.
On the technique in general: Polarisation of emitted light reports the rotation of a fluorescent probe.

The Ki is a measure of affinity in units of concentration, obtained from inhibition or displacement. Read a high Ki as a looser hold on the target. On to CIECYIMEDGTCA (linker 1-4-12 via TBMB) [21-31-01-N001], for which the Ki in experiment [1] turned out to be 70 nM.

B1: 21-31-04-T01-N007 (peptide)
peptide: EVCWDCFMMEDGTCAXXXXXXK
modifications: N-terminal acetyl; D-Glu at 1; Cys 3, 6 and 14 joined by thioether linkages to TBMB scaffold; X16-X21 = Sar; D-Lys at 22
For B1, the Ki in experiment [1] came out at 30 nM.

For ACMVCHMMEDGTCA (linker 2-5-13 via TBMB) [21-31-N002], the “Enzyme inhibition IC50” value in experiment [2] was 695 nM. This molecule displayed a Ki in experiment [1] of 40 nM.

The molecule EVCWD[Dap(Me)]FMMEDGT[Dap(Me)]A (linker 3-6-14 via TBMB, Bicyclic peptide on TBMB scaffold) [21-31-04-T01-N017] displayed a Ki in experiment [3] of 700 nM.

B2: 21-31-04-T01-N001 (peptide)
peptide: EVCWDCFMMEDGTCA
modifications: linker 3-6-14 via TBMB
notes: Bicyclic peptide on TBMB scaffold, all thioether
As to B2, the Ki in experiment [3] is 3 nM.

FCSECYMMEDGTCA (linker 2-5-13 via TBMB) [21-31-11-T01-N001] returned a Ki in experiment [1] of 6 nM.
